Source: paper doi:10.1101/708180

Assays:
[1] = target: cHSP27, isolated α-crystallin domain of HSP27 (residues 84-171), oxidized disulfide-linked dimer (human) (UniProt P04792); assay: NMR titration
[2] = target: cHSP27, isolated α-crystallin domain of HSP27 (residues 84-171), oxidized disulfide-linked dimer (human) (UniProt P04792); assay: NMR CPMG relaxation dispersion
[3] = target: cHSP27, isolated α-crystallin domain of HSP27 (residues 84-171), oxidized disulfide-linked dimer (human) (UniProt P04792); assay: NMR titration + other: NMR CPMG relaxation dispersion

C-terminal peptide of HSP27 containing the WT IxI/V (IPV) motif, sequence (P04792 whole entry, looked up, tested part not stated): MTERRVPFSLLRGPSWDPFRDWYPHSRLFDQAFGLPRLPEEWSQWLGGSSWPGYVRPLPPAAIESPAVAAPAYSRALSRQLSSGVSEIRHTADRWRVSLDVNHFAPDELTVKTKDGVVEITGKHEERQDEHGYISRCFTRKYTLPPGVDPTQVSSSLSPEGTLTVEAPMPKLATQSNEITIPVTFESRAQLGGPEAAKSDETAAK
cHSP27, isolated α-crystallin domain of HSP27 (residues 84-171), oxidized disulfide-linked dimer (human), sequence (P04792 84-171): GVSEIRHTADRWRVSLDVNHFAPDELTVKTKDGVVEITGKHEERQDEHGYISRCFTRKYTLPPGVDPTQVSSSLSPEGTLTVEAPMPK
C-terminal peptide of HSP27 bearing the P182L mutation (ILV motif), sequence (P04792 whole entry P182L, looked up, tested part not stated): as the sequence (P04792 whole entry, looked up, tested part not stated) above, with P182L counted along it

## C-terminal peptide of HSP27 containing the WT IxI/V (IPV) motif (from UniProt P04792 179-186)
[1]
  Kd: 0.125 mM
[2]
  Kd: 2.51 mM
  koff: 759 s⁻¹
  kon: 302000 M⁻¹ s⁻¹

## C-terminal peptide of HSP27 bearing the P182L mutation (ILV motif) (from UniProt P04792 179-186)
[1]
  Kd: 1.2 mM
[2]
  Kd: 10.2 mM
  koff: 840 s⁻¹
  kon: 82600 M⁻¹ s⁻¹
[3]
  fold difference of kon (from CSP Kd and CPMG koff) against the WT peptide: 10 fold
